From PMC7643343, “The intrinsically disordered region of GCE protein adopts a more fixed structure by interacting with the LBD of the nuclear receptor FTZ-F1” (Cell Communication and Signaling : CCS, 2020)

Biological target: T1, ligand binding domain of the nuclear receptor Fushi Tarazu factor-1 (LBD FTZ-F1) (Drosophila, UniProt P33244 786-1027, 15N-labelled in the experiment with the peptide; unlabelled in the experiment with GCEC)
T1 construct: cDNA synthesised (Gene Art); Cloned into pET-15b; residues left by the thrombin site are not described; Purified protein runs as a 26.5 kDa globular protein; also called FTZ-F1 LBD; LDB FTZ-F1 (786-1027); source: E. coli BL21(DE3), soluble fraction, purified (Ni-NTA, thrombin, second IMAC, SEC on Superdex75)
T1 sequence (looked up): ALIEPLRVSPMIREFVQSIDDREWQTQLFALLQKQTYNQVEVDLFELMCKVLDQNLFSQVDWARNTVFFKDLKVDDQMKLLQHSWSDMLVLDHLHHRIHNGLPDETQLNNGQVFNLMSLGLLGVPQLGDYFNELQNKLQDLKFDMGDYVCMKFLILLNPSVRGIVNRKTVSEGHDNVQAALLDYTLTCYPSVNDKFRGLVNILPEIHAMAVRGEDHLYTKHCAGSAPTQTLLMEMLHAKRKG
Assay: NMR titration; 1H-15N HSQC chemical shift perturbation, 15N-labelled LBD FTZ-F1 after incubation with the … peptide (concentration set by its solubility limit), buffer F with 10% D2O, 22 °C, 800 MHz
Conditions: both partners purified

binding result: binds
B1: 9-residue GCEC peptide (GCE^PEP) (peptide)
peptide: LRLIQNLQK
notes: stretch of the C-terminal region of GCE, D. melanogaster, with the novel NR-box (LIXXL motif; LIQNL); source: synthetic peptide (PSL GmbH, Heidelberg)
